Test results taken from the nanobody polyreactivity screen of Harvey et al. (2022).

Assay: yeast display, Sf9 membrane polyspecificity reagent, FACS + sequencing; frameworks hold sequencing errors
Procedure, shortened: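 Galactose induction of a Saccharomyces cerevisiae BJ5465 synthetic nanobody display library ran 36–48 hours. The cells were then stained for 1 hour at 4 °C with 10% biotinylated, detergent-solubilized Sf9 membrane reagent, pulled down on streptavidin microbeads and FACS-sorted into low and high (top ~1%) gates on expression and reagent-binding fluorescence. Labels for polyreactivity follow the gate of origin.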

| Sequence | polyreactivity (PSR sort gate) |
| --- | --- |
| QVQLVESGGGLVQAGGSLRLSCAASGRTFKPYAMGWYRQAPGKERELVAAISSGVSTHYADSVKGRFTISRDNAKNTVYLQMNSLKPEDTAVYYCAADRSSQFDLDYWGQGTRVTVSS | low polyreactivity |
| QVQLVESGGGLVQAGGSLRLSCAASGRTFKPYAMGWYRQAPGKERELVAVISSTGSTKYADSVKGRFTISRDNAKNTVYLQMNSLKPEDTAVYYCAAQNTYIYYWGQGTQVTVSS | high polyreactivity |
| QVQLVESGGGLVQAGGSLRLSCAASGRTFKQYAMGCYRQAPGKERELVAVITRTGGSTYYADSVKGRFTISRDNAKNTVYLLMNSLKPEDTAVYYCARYPPRGYIAWRYYDYDYWGQGTQVTVSS | high polyreactivity |
| QVQLVESGGGLVQAGGSLRLSCAASGRTFKSYALGWYRQAPGKERELVATITRDGRTNYADSVKGRFTISRDNAKNTVYLQMNSLKPEDTAVYYCNADSRYRYDYWGQGTQVTVSS | low polyreactivity |
| QVQLVESGGGLVQAGGSLRLSCAASGRTFKTYAMVWYRQAPGKERELVAAISRDGRTYYADSVKGRFTISRDNAKNTVYLQMNSLKPEDTAVYYCNKRSYRNGDYWGQGTQVTVSS | low polyreactivity |
| QVQLVESGGGLVQAGGSLRLSCAASGRTFKVYAMGWYRPAPGKERELVAAISGSGGSTYYADSVKGRFTISRDNAKNTVYLQMNSLKPEDTAVYYCATDPSAPYTQLSSYYYWGQGTQVTVSS | low polyreactivity |
| QVQLVESGGGLVQAGGSLRLSCAASGRTFKWYAMGWYRQAPGKERELVAAISSSGSTYYADSVKGRFTISRDNAKNTVYLQMNSLKPEDTAVYYCAVLRRYLVGNLVGYNYWGQGTQVTVSS | high polyreactivity |
| QVQLVESGGGLVQAGGSLRLSCAASGRTFKYNAMGWYRQAPGKEREFVAAISSRGGSTYYADSVKGRFTISRDNAKNTVYLQMNSLKPEDTAVYYCNKLYGTRWSGLADDYWGQGTQVTVSS | high polyreactivity |
| QVQLVESGGGLVQAGGSLRLSCAASGRTFKYNAMGWYRQAPGKERELVAAISSRGGSTYYADSVKGRFTISRDNAKNTVYLQMISLKPEDTAVYYGANATSSSEYGYDYWGQGTQVTVSS | high polyreactivity |
| QVQLVESGGGLVQAGGSLRLSCAASGRTFKYNVMGWYRPAPGKERELVAAISSGGGTNYADSVKGRFTISRDNAKKTVYFQINSLKPEDTAVYYCAAKYAWRLLEMYYWGQGTQVTVSS | low polyreactivity |
| QVQLVESGGGLVQAGGSLRLSCAASGRTFKYYAMGCYRQARGKERELVAAISGSGGSTYYADSVKGRFTISRDNAKNTVYLQMNSLKPEDTAVYYCATGGGKTRSYNYWGKGTQVTVSS | high polyreactivity |
| QVQLVESGGGLVQAGGSLRLSCAASGRTFKYYAMGWYRQAPGKERELVAAISRSGGSTYADSVKGRFTISRDNAKNTVYLQMNSLKPEDTAVYYCATGWWRQGVASFDYDYWGQGTQVTVSS | high polyreactivity |
| QVQLVESGGGLVQAGGSLRLSCAASGRTFKYYAMGWYRQAPGKERELVAAISRSGGSTYYADSVKGRFTISRDNAKNTVYLQMNSLKPEDTAVYYCNAEYLWIRHIAEDYWGQGTQVTVSS | low polyreactivity |
| QVQLVESGGGLVQAGGSLRLSCAASGRTFKYYAMGWYRQAPGKERELVAAITTGGSTHYADSVKGRFTISRDNAKNTVYLQMNSLKPEDTAVYYCAAGPFARYDYWGQGTEVTVSS | low polyreactivity |
| QVQLVESGGGLVQAGGSLRLSCAASGRTFKYYTMGWYRQAPGKERELVAAISGGGGITNYADSVKGRFTISRDNAKNTVYLQMNSQKPEDTAVYYCYARYNSWRYLAQYNYWGQGTQVTVSS | high polyreactivity |
| QVQLVESGGGLVQAGGSLRLSCAASGRTFLGYAMGWYRQAPGKERELVAAINRSGGRTYYADSVKGRFTISRDNAKNTVYLQMNSMKQEDTSVYYCAAYTSYSAYDYWGQGTQVTVSS | high polyreactivity |
| QVQLVESGGGLVQAGGSLRLSCAASGRTFLGYAMGWYRQAPGKERELVAAISYSGSSTYYADSVKGRFTITRDNAKITVYLQMNSLKPEDTAVYYCAAQFFFLFDYWGQGTQVTLSS | low polyreactivity |
| QVQLVESGGGLVQAGGSLRLSCAASGRTFLINAMGWYRQAPGKERELVAAITQSGGSTYYADSVKGRFTISRDNAKNTVYLQMNSLKPEDTAVYYCNAQSWYIVPYDYWGQGTQVTVSS | low polyreactivity |
| QVQLVESGGGLVQAGGSLRLSCAASGRTFLLNAMGWYRQAPGKERELVAAMTRSGVITYYADSVKGRFTISRDNAKNTVYLQMNSLKPEDTAVYYCAARRDARSTEYGYWGQGTQVTVSS | high polyreactivity |
| QVQLVESGGGLVQAGGSLRLSCAASGRTFLLNAMGWYRQAPGKERELVATITYSGGITYYADSVKGRFTISRDNAKNTVYLQMNSLKPEDTAVYYCSTSGPQYYSRNFDYWGQGTQVTVSS | low polyreactivity |
| QVQLVESGGGLVQAGGSLRLSCAASGRTFLLYAMGWYRPAPGKERELVAAIRSSTVSTYYADSVKGRFTISRDNAKNTVYLQMNSLKPEDTAVYYCAASRPKYGPSGVRYNYWGQGTQVTVSS | high polyreactivity |
| QVQLVESGGGLVQAGGSLRLSCAASGRTFLNYPMGWYRPAPGKERELVASISSSGARTYYADSVKGRFTISRDNAKNTVYLQMNSLKPEDTAVYFCAVTAGRGGYPQGGVTRGYWGQGTQVTVSS | high polyreactivity |

| Sequence | polyreactivity (PSR sort gate) |
| --- | --- |
| QVQLVESGGGLVQAGGSLRLSCAASGRTFLPNAMGWYRQAPGKERELVAAINWRGASTYYADSVKGRFTISRDNAKNTVYLQMNSLKPEDTAVYYCAVDSHYQSYYYRRYDYWGQGTQVTVSS | low polyreactivity |
| QVQLVESGGGLVQAGGSLRLSCAASGRTFLPNPMGWYRQAPGKERELVAVITSGGSTNYADSVKGRFTISRDNAKNTVYLQMNSLKPEDTAVYYCAADRYSYFYIGYDYWGQGTQVTVSS | low polyreactivity |
| QVQLVESGGGLVQAGGSLRLSCAASGRTFLPYAMGWYRQAPGKERELVADINWGGGSTYYADSVKGRFTISRDNATNTVYLQMNSLKQEDTALYYCATDDGYQYWYYQWYYWGQGTQVTVSS | low polyreactivity |
| QVQLVESGGGLVQAGGSLRLSCAASGRTFLRNAMRWYRQAPGKERELVATISIGGRTYYADSVKGRFTISRDNAKNTVYLQMNSLKPEDTAVYYCNASTSILSLDWEYGSWGQGTQVTVSS | low polyreactivity |
| QVQLVESGGGLVQAGGSLRLSCAASGRTFLRYAMGWYRQAPGKERELVAAISVSGGNTYYADSVKGRFTISRDNAKNTVYLQMNSLKPEDTAVYYCNKARLAAVFSYPYGYWGQVTQVTVSS | low polyreactivity |
| QVQLVESGGGLVQAGGSLRLSCAASGRTFLRYAMGWYRQAPGTERELVAAISWSGGRTYYADSVKGRFTISRDNAKNTVYLQMNSLKPEDTAVYYCNKVVLYGAHYYYWGQGTQVTVSS | high polyreactivity |
| QVQLVESGGGLVQAGGSLRLSCAASGRTFLSYMGWYRQAPGKERELVAISRSGTSTYYADSVKGRFTISRDNAKNTVYLQMNSLKPEDTAVYYCAAETNTWYLFDYWGQGTQVTVSS | high polyreactivity |
| QVQLVESGGGLVQAGGSLRLSCAASGRTFLTNAMGWYRQAPGKERELVAAIRWSGTSTYYADSVKGRFTISRDNAKNTVYLQMNSLKPEDTAVYYCAARKVYGSKYGYWGQGTQVTVSS | high polyreactivity |
| QVQLVESGGGLVQAGGSLRLSCAASGRTFLTNAMGWYRQAPGKERELVAAISSGASTNYADSVKGRFTISRDNAKNTVYLQMNSLKPEDTAVYYCAAQLTDYQSKTLSYDYWGQGTQVTVSS | low polyreactivity |
| QVQLVESGGGLVQAGGSLRLSCAASGRTFLTYAMGWYRQAPGKERELVAAISKRGGSTYYADSVKGRFTISRDNAKNTVYLQMNSLKPEDTAVYFCAADNGNHYGFWGQGTQVTVSS | high polyreactivity |
| QVQLVESGGGLVQAGGSLRLSCAASGRTFLVYAMGWYRQAPGKERELVAAITWTGGTTYYADSVKGRFTISRDNAKNTVYLQMNSLKPEDTAVYYCNKRGSAWLVEEVDYWGQGTQVTVSS | low polyreactivity |
| QVQLVESGGGLVQAGGSLRLSCAASGRTFLVYAMGWYRQPPGTERELVAAITSGGSTYYADSVKGRFTISRDNAKNTVYLQMNSLKPEDTAVYYCAAKIRGYPRRRYDYWGQGTQVTVSS | high polyreactivity |
| QVQLVESGGGLVQAGGSLRLSCAASGRTFLYNAMGWYRQAPGKERELVAAISGRGGRTYYADSVKGRFTISRDNAKNTVYLQMNSLKPEDTAVYYCAASQYYRWVIGYDFEYDYWGQGTQVTVSS | high polyreactivity |
| QVQLVESGGGLVQAGGSLRLSCAASGRTFLYNTRGWYRQAPGKERELVATITGSGASTYYADSVKGRFTISRDNAKNTVYLQMNSLKPEDTAVYYCATDNVYAYDYWGQGTQLTVSS | high polyreactivity |
| QVQLVESGGGLVQAGGSLRLSCAASGRTFLYSTMGWYRQAPGKERELVAAISKSVGRTYYADSVKGRFTISRDNAKNTVYLQMNSLKPEDTAVYYCAKRWYAGAQHGFDYLGQGTQVTVSS | low polyreactivity |
| QVQLVESGGGLVQAGGSLRLSCAASGRTFLYYAMGWESQGPGKERELVAAITGRGGSTYSADSVKGRFTISRDNAKNTVYLQMNILKPEDTAVYYCAARDNWIRRDGYWGQGTQVTVSS | high polyreactivity |
| QVQLVESGGGLVQAGGSLRLSCAASGRTFLYYTMGWYRQAPGKERELVAAINWSGGRTYYADSVKGRFTISRDNAKNTVYLQMNSLKPEDTAVYYCNADSRYRYDYWGQGTQVTVSS | low polyreactivity |
| QVQLVESGGGLVQAGGSLRLSCAASGRTFNGYALGGYRQAPGKERELVAAICSSGGSTYYADSVKGRFTISRDNAKNTVYLQMNSLKPEDTAVYYCAARRANGFNYWGQGTQVTVSS | high polyreactivity |
| QVQLVESGGGLVQAGGSLRLSCAASGRTFNGYAMGWYRQAPGKERELVAAISSSGSTNYADSVKGRFTISRDNAKNTVYLQMNSLKPEDTAVYYCAAEYYAYESVEYDYWGQGTQVTVSS | low polyreactivity |
| QVQLVESGGGLVQAGGSLRLSCAASGRTFNHYAMGWYSQAPGKVRELVAGITISGGSTYYADSVKGRFTISRDNAKNTVYLQMNSLKPEDTPVYYCKAVYEYYRQSKGNMDYWGQGTQGTVSS | low polyreactivity |
| QVQLVESGGGLVQAGGSLRLSCAASGRTFNLYAMVWSRQAPGKERELVAAISLSGGRTYYADSVKGRITISRDNAKNTVFLQMNRLNPEDTAVYYCNTDTSRRAVQYDYWGQGTQVSVSS | high polyreactivity |
